Tests used:
[1] = biological target: WipA411 (WipA 33-411) (Legionella pneumophila) (UniProt Q5ZS02); test: SEC-MALS
[2] = biological target: WipA (IcmW-interacting protein A; lpg2718), full-length protein (Legionella pneumophila) (UniProt Q5ZS02); test: SEC-MALS

| Substance | stoichiometry N [1] | stoichiometry N [2] |
| --- | --- | --- |
| WipA411 (WipA 33-411) (from UniProt Q5ZS02 33-411) (domain or fragment) | 2 |  |
| WipA (IcmW-interacting protein A; lpg2718), full-length protein (from UniProt Q5ZS02 1-520) (enzyme) |  | 2 |
